This is an account of results in publication PMC314469, “Protein Interaction Networks by Proteome Peptide Scanning” (PLoS Biology, 2004).

To fix the notation:
T1: amphyphisin SH3 (AMPH_HUMAN), P49418
T1 chain: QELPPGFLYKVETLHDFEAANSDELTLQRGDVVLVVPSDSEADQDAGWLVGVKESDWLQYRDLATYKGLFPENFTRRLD

The first test has as its target T1, amphyphisin SH3 (AMPH_HUMAN), P49418. Briefly: SPOT array.
For the molecule LMIIIARPARLLES [Q9BYE8 416-429], the normalised SPOT signal, Boehringer light units (BLU); mean over the file's lines of this peptide was 335.
On the same count and under the same terms, the value for LLPFPLRPPSPHSP [Q9HAF8 97-111] was 178.
On to LPETFRRPQIDPAV [Q9UJL8 67-80], for which the normalised SPOT signal, Boehringer light units (BLU); mean over the file's lines of this peptide is 23.1.
As to LMIHPPRPPKVLGL [P39191 481-494], the normalised SPOT signal, Boehringer light units (BLU); mean over the file's lines of this peptide came to 450.
APPRLARPPRFYEA [Q9HAH7 279-292] yielded a normalised SPOT signal, Boehringer light units (BLU); mean over the file's lines of this peptide of 702.
For the molecule LNKYLSRPKRFEVA [Q9Y648 264-277], the normalised SPOT signal, Boehringer light units (BLU); mean over the file's lines of this peptide stood at 71.8.
LPEVPEKPPAGESV [Q9NVI4 527-541]: the normalised SPOT signal, Boehringer light units (BLU); mean over the file's lines of this peptide worked out at 39.6.
In turn, LPGEPRRPAEIYHS [Q9P006 57-70] returned a normalised SPOT signal, Boehringer light units (BLU); mean over the file's lines of this peptide of 19.2.
LLLLLYRPPRYQIA [O60725 54-67] displayed a normalised SPOT signal, Boehringer light units (BLU); mean over the file's lines of this peptide of 159.
In the case of LLYTLRRPYFRKME [P36888 164-177], the normalised SPOT signal, Boehringer light units (BLU); mean over the file's lines of this peptide was 41.1.
On to LPKHLRRPEPSKPQ [Q96M07 127-140], for which the normalised SPOT signal, Boehringer light units (BLU); mean over the file's lines of this peptide was determined as 15.9.
Molecule LNPDFSRPNRKYTW [P35573 181-194] displayed a normalised SPOT signal, Boehringer light units (BLU); mean over the file's lines of this peptide of 1190.
Consider LPENFRRPQTDQAV [Q9H8X4 102-115], for which the normalised SPOT signal, Boehringer light units (BLU); mean over the file's lines of this peptide was found to be 20.2.
Take LLMVPRRPGYGTMG [Q96JZ0 14-27]: the normalised SPOT signal, Boehringer light units (BLU); mean over the file's lines of this peptide was 816.
The same measure, in the same setting: then LLLPPPRPPHSDIT [Q9H6X1 45-59], with 873.
Take LLYLPLKPPNMFPS [Q9H799 457-471]: the normalised SPOT signal, Boehringer light units (BLU); mean over the file's lines of this peptide was determined as 28.2.
Same read-out and setting: the value for LPARPRRPTPTMVP [Q13545 30-43] was 10700.
The same measure, in the same setting: the value for LLGPFRRPTTQLRA [P25100 499-512] was 336.
The molecule LLIIISRPARLLES [O60307 271-284] showed a normalised SPOT signal, Boehringer light units (BLU); mean over the file's lines of this peptide of 90.2.
For the molecule LLGKPKRPRSAYNV [Q00059 151-164], the normalised SPOT signal, Boehringer light units (BLU); mean over the file's lines of this peptide worked out at 45.3.
For LLLHPRRPRLHPGT [O95141 51-64], the normalised SPOT signal, Boehringer light units (BLU); mean over the file's lines of this peptide was found to be 87.
The same measure, in the same setting: then LLPGPGRPPPPPTK [Q9UJJ7 274-288], with 103; and LLSQLGRPFREYEL [Q9C095 450-463], with 204.
As to LLNTLKRPKRPPLK [Q96NX2 21-34], the normalised SPOT signal, Boehringer light units (BLU); mean over the file's lines of this peptide was 443.
Still for that read-out and setting: the value for APPQIRRPNREVRP [Q9BW62 109-122] was 3240.
For the molecule LLLGIRRPEFLSRP [Q9NWT5 57-70], the normalised SPOT signal, Boehringer light units (BLU); mean over the file's lines of this peptide was 51.2.
Turning to LPEELPRPRRPPPE [P22460 81-94], the normalised SPOT signal, Boehringer light units (BLU); mean over the file's lines of this peptide was 102.
As to LPIAFIRPFREHHI [Q9UKL1 106-119], the normalised SPOT signal, Boehringer light units (BLU); mean over the file's lines of this peptide was found to be 6760.
Still for that read-out and setting: then LLMVPRRPGYGAMG [Q9H9G7 14-27], with 183.
LLFSLRRPSSTVTM [Q96SW7 100-113] came in with a normalised SPOT signal, Boehringer light units (BLU); mean over the file's lines of this peptide of 54.9.
On the same count and under the same terms, then LPKGLGRPGKGHYW [Q12946 84-97], with 207.
Same read-out and setting: the value for APPPPSRPPQPRPG [Q9NRK3 42-56] was 856; that for LLPALRRPSRASSA [O95327 190-203] was 5020.
Molecule LNRGPSRPRRQAGR [Q9NQA3 32-45] showed a normalised SPOT signal, Boehringer light units (BLU); mean over the file's lines of this peptide of 6720.
LPFYFKRPPINVAI [P78346 133-146] gave a normalised SPOT signal, Boehringer light units (BLU); mean over the file's lines of this peptide of 16.4.
The molecule LPHWLRRPVYSLYI [Q9UG56 133-146] showed a normalised SPOT signal, Boehringer light units (BLU); mean over the file's lines of this peptide of 49.7.
LNSSFSRPDRPASV [P18627 187-200] had a normalised SPOT signal, Boehringer light units (BLU); mean over the file's lines of this peptide of 4090.
In turn, APPVLKRPILQSLL [Q14700 527-540] showed a normalised SPOT signal, Boehringer light units (BLU); mean over the file's lines of this peptide of 39.2.

In a further test the target is endophilin SH3 (SH3G2_HUMAN), Q99962. Briefly: SPOT array.
As to LMIIIARPARLLES [Q9BYE8 416-429], the normalised SPOT signal, Boehringer light units (BLU); mean over the file's lines of this peptide came out at 167.
LLPFPLRPPSPHSP [Q9HAF8 97-111] came in with a normalised SPOT signal, Boehringer light units (BLU); mean over the file's lines of this peptide of 9850.
In turn, LPETFRRPQIDPAV [Q9UJL8 67-80] displayed a normalised SPOT signal, Boehringer light units (BLU); mean over the file's lines of this peptide of 17.6.
LMIHPPRPPKVLGL [P39191 481-494] came in with a normalised SPOT signal, Boehringer light units (BLU); mean over the file's lines of this peptide of 1020.
On to APPRLARPPRFYEA [Q9HAH7 279-292], for which the normalised SPOT signal, Boehringer light units (BLU); mean over the file's lines of this peptide amounted to 205.
LNKYLSRPKRFEVA [Q9Y648 264-277] had a normalised SPOT signal, Boehringer light units (BLU); mean over the file's lines of this peptide of 212.
Molecule LPEVPEKPPAGESV [Q9NVI4 527-541] yielded a normalised SPOT signal, Boehringer light units (BLU); mean over the file's lines of this peptide of 57.1.
For the molecule LPGEPRRPAEIYHS [Q9P006 57-70], the normalised SPOT signal, Boehringer light units (BLU); mean over the file's lines of this peptide was found to be 44.5.
In turn, LLLLLYRPPRYQIA [O60725 54-67] displayed a normalised SPOT signal, Boehringer light units (BLU); mean over the file's lines of this peptide of 89.6.
LLYTLRRPYFRKME [P36888 164-177] registered a normalised SPOT signal, Boehringer light units (BLU); mean over the file's lines of this peptide of 99.
For the molecule LPKHLRRPEPSKPQ [Q96M07 127-140], the normalised SPOT signal, Boehringer light units (BLU); mean over the file's lines of this peptide is 12.8.
The molecule LNPDFSRPNRKYTW [P35573 181-194] showed a normalised SPOT signal, Boehringer light units (BLU); mean over the file's lines of this peptide of 62.4.
LPENFRRPQTDQAV [Q9H8X4 102-115] displayed a normalised SPOT signal, Boehringer light units (BLU); mean over the file's lines of this peptide of 40.7.
LLMVPRRPGYGTMG [Q96JZ0 14-27] came in with a normalised SPOT signal, Boehringer light units (BLU); mean over the file's lines of this peptide of 1280.
Take LLLPPPRPPHSDIT [Q9H6X1 45-59]: the normalised SPOT signal, Boehringer light units (BLU); mean over the file's lines of this peptide came out at 1430.
On the same count and under the same terms, then LLYLPLKPPNMFPS [Q9H799 457-471], with 13.3; and LPARPRRPTPTMVP [Q13545 30-43], with 6910; and LLGPFRRPTTQLRA [P25100 499-512], with 614.
Turning to LLIIISRPARLLES [O60307 271-284], the normalised SPOT signal, Boehringer light units (BLU); mean over the file's lines of this peptide is 87.4.
For LLGKPKRPRSAYNV [Q00059 151-164], the normalised SPOT signal, Boehringer light units (BLU); mean over the file's lines of this peptide was determined as 268.
The molecule LLLHPRRPRLHPGT [O95141 51-64] displayed a normalised SPOT signal, Boehringer light units (BLU); mean over the file's lines of this peptide of 1540.
The molecule LLPGPGRPPPPPTK [Q9UJJ7 274-288] showed a normalised SPOT signal, Boehringer light units (BLU); mean over the file's lines of this peptide of 3240.
As for LLSQLGRPFREYEL [Q9C095 450-463], the normalised SPOT signal, Boehringer light units (BLU); mean over the file's lines of this peptide is 0.
Regarding LLNTLKRPKRPPLK [Q96NX2 21-34], the normalised SPOT signal, Boehringer light units (BLU); mean over the file's lines of this peptide came to 85.
Turning to APPQIRRPNREVRP [Q9BW62 109-122], the normalised SPOT signal, Boehringer light units (BLU); mean over the file's lines of this peptide came to 638.
As for LLLGIRRPEFLSRP [Q9NWT5 57-70], the normalised SPOT signal, Boehringer light units (BLU); mean over the file's lines of this peptide was 1340.
LPEELPRPRRPPPE [P22460 81-94] registered a normalised SPOT signal, Boehringer light units (BLU); mean over the file's lines of this peptide of 150.
On to LPIAFIRPFREHHI [Q9UKL1 106-119], for which the normalised SPOT signal, Boehringer light units (BLU); mean over the file's lines of this peptide was 1060.
LLMVPRRPGYGAMG [Q9H9G7 14-27]: the normalised SPOT signal, Boehringer light units (BLU); mean over the file's lines of this peptide worked out at 3260.
The molecule LLFSLRRPSSTVTM [Q96SW7 100-113] displayed a normalised SPOT signal, Boehringer light units (BLU); mean over the file's lines of this peptide of 537.
LPKGLGRPGKGHYW [Q12946 84-97] registered a normalised SPOT signal, Boehringer light units (BLU); mean over the file's lines of this peptide of 104.
The same measure, in the same setting: then APPPPSRPPQPRPG [Q9NRK3 42-56], with 3870; and LLPALRRPSRASSA [O95327 190-203], with 3500.
With LNRGPSRPRRQAGR [Q9NQA3 32-45], the normalised SPOT signal, Boehringer light units (BLU); mean over the file's lines of this peptide came out at 207.
In the case of LPFYFKRPPINVAI [P78346 133-146], the normalised SPOT signal, Boehringer light units (BLU); mean over the file's lines of this peptide came to 73.2.
LPHWLRRPVYSLYI [Q9UG56 133-146] displayed a normalised SPOT signal, Boehringer light units (BLU); mean over the file's lines of this peptide of 210.
For LNSSFSRPDRPASV [P18627 187-200], the normalised SPOT signal, Boehringer light units (BLU); mean over the file's lines of this peptide came to 123.
The same measure, in the same setting: then APPVLKRPILQSLL [Q14700 527-540], with 309.
